As usually defined, the Kd is the concentration at which binding is half-saturated. Read a low Kd as tighter binding.

The target of the data set is SARS-CoV-2 spike receptor-binding domain (RBD) (SARS-CoV-2, UniProt P0DTC2 319-541). The data set can be described thus: 40 min incubation, immobilized aptamer.

B1: SARS-CoV-2 RBD aptamer, amine-terminated (ssDNA)
DNA: CAGCACCGACCTTGTGCTTTGGGAGTGCTGGTCCAAGGGCGTTAATGGACA
modifications: 5'-NH2-(CH2)6
For the molecule B1, the affinity, expressed as Kd, was 3.4 nM.

These data come from article PMC8240452.
